Measured values published in patent publication US6770448B2, “Fluorescent amyloid Aβ peptides and uses thereof” (The Regents of the University of California, priority 1997, dated 2004).

Tests used:
[1] = Gel filtration chromatography (Superdex 75 HR 10/30), oligomeric structure; format: physicochemical; conditions: Superdex 75, Buffer A
Description: The peptides were dissolved in DMSO for 30 minutes and then ten fold diluted in buffer A at a final protein concentration of 5-10 μM. A 200 μl aliquot was loaded onto a Superdex 75HR 10/30 column and eluted at a rate of 0.4 ml/min.
Gel filtration analysis was performed with a Pharmacia Superdex 75 HR 10/30 column using a Waters 490 multiple wavelength UV absorbance detector and Hewlett Packard 3250 fluorescence detector. Data were collected with a Waters Maxima chromatography data system. The running buffer used was 50 mM Tris, 0.1 M NaCl, pH 7.4 (Buffer A) in the presence of 10% or 2% DMSO. The column was calibrated with the following molecular weight standards: thyroglobulin, bovine serum albumin, ovalbumin, soybean trypsin inhibitor, ubiquitin, aprotinin, and insulin β-chain. The peptides were detected by UV absorbance at 280 nm and by fluorescence at 482 and 520 nm for IAEDANS and FM respectively.

[2] = Denaturation (unfolding) of Aβ in DMSO monitored by tyrosine or AEDANS fluorescence; format: physicochemical
Description: FIG. 3 is a graph illustrating the unfolding of Aβ measured by tyrosine fluorescence and 1,5-IAEDANS fluorescence. […] The protein concentration was 5-10 μM of Aβ.
For refolding experiments, samples were incubated in 100% DMSO for 1 hour at room temperature, and refolding was initiated by ten or fifty times dilution of the solvent in Tris buffered solution. The concentration of peptide ranged between 3 and 10 μM.
Absorption measurements were measured with a Perkin Elmer Lambda 3B UV-Vis spectrophotometer. Fluorescence spectra (excitation band pass 4 nm; emission band pass 8 nm) were measured either on an Aminco SLM 48000 or a SPEX Fluorolog F112A spectrofluorometer. Intrinsic tyrosine fluorescence was measured from 285 to 400 nm upon excitation at 275 nm. […] The lifetime measurements for FM were acquired using the 488 nm line of argon ion laser for excitation using a multiharmonic frequency-domain spectrofluorometer (Aminco 48000S).

Substance | elution position on gel filtration [1] | unfolding curve compared with AβC25-AEDANS [2]
14C-labeled Aβ 1-40: Aβ synthesized by incorporation of Fmoc-14C-Ala at position 2, 36 mCi/mmol | eluted at the position expected for a dimer | 
AβC4FM: Aβ with cys in position 4 and labeled with FM |  | identical unfolding curves
AβC7FM: Aβ with cys in position 7 and labeled with FM |  | identical unfolding curves
